Columns and labels:
[1] = target: T1, Flag-Star-PAP (full length)
T1 chain: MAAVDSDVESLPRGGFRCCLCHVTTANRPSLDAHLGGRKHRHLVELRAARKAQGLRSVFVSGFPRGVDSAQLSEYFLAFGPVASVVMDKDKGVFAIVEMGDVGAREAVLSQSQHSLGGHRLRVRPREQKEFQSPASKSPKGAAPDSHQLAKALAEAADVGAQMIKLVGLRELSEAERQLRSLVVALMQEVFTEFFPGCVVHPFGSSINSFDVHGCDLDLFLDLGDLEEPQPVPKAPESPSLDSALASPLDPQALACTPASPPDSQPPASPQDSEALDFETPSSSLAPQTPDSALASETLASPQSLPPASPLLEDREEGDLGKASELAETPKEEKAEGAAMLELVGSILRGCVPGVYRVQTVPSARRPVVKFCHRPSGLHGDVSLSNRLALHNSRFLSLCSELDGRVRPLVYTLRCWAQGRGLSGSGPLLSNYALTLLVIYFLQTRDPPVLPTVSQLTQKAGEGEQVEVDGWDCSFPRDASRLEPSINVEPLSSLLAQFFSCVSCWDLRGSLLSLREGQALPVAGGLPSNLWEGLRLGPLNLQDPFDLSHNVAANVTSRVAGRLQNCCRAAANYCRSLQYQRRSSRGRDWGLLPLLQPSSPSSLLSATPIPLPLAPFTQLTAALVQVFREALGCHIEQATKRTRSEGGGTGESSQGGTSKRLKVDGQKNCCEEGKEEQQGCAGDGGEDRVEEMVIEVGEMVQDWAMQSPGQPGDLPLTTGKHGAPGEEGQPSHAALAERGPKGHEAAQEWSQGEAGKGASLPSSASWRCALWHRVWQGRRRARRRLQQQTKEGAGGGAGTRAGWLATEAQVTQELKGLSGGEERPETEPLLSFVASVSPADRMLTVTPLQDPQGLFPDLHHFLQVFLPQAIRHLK

[2] = target: T2, FLAG-Star-PAP ΔPRR ½ (lacking amino acids 223-274)
T2 chain: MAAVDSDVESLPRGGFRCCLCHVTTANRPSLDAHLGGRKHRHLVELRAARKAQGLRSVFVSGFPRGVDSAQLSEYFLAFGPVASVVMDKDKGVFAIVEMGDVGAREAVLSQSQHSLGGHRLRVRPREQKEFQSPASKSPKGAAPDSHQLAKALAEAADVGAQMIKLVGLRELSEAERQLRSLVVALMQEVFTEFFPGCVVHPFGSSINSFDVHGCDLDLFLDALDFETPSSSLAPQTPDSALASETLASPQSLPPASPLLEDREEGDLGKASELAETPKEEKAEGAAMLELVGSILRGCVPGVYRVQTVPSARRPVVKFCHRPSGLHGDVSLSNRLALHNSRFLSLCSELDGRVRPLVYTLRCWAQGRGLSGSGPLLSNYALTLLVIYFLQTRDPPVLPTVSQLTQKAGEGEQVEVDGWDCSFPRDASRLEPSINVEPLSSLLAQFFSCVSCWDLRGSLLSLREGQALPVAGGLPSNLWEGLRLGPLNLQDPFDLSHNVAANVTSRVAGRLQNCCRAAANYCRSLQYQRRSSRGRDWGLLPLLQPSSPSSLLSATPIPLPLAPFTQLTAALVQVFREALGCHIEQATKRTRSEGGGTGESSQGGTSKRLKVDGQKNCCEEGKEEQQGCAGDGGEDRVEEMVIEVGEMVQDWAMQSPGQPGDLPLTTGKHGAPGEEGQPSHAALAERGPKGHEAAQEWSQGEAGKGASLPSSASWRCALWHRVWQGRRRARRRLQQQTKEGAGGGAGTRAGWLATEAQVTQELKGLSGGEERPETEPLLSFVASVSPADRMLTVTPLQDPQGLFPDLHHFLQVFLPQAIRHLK

B1: FLAG-CKIα (wild type) (protein)
chain: MASSSGSKAEFIVGGKYKLVRKIGSGSFGDIYLAINITNGEEVAVKLESQKARHPQLLYESKLYKILQGGVGIPHIRWYGQGKDYNVLVMDLLGPSLEDLFNFCSRRFTMKTVLMLADQMISRIEYVHTKNFIHRDIKPDNFLMGIGRHCNKLFLIDFGLAKKYRDNRTRQHIPYREDKNLTGTARYASINAHLGIEQSRRDDMESLGYVLMYFNRTSLPWQGLKAATKKQKYEKISEKKMSTPVEVLCKGFPAEFAMYLNYCRGLRFEEAPDYMYLRQLFRILFRTLNHQYDYTFDWTMLKQKAAQQAASSSGQGQQAQTPTGF
in vitro kinase assay: phosphorylation of heat inactivated FLAG-Star-PAP [1]: Purified FLAG-CKIα was able to directly phosphorylate heat inactivated Star-PAP
in vitro kinase assay: phosphorylation of FLAG-Star-PAP truncation and deletion mutants [2]: CKIα was able to phosphorylate all truncation mutants except those which lacked the first half of the proline rich region (ΔPRR ½, amino acids 223-274)

Source: patent US20090263375
